Assay results from the supplement of paper PMC10126150.
± gives the standard deviation of the averaged measurements.

Tested on: ATP
Experiment: switch fluorescence ratio, 500 uM ATP over buffer (Cy3 cluster intensity, sum of 5 cycles each) (fold (ratio)); higher = stronger signal-on switching upon ATP binding; sequences stand for … in TCGTCGGCAGCGTCAGATGTGTATAAGAGACAGTTTTTTTTTTTTTTTTTTTTTTTTT…TC
Settings: aptamer strand: ATP DNA aptamer (quencher-CACCTGGGGGAGTATTGCGGAGGAAGG + anchor), 100 nM annealed; ATP concentration: 500 uM
Method in brief: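 The fluorescence ratio divides summed target-cycle Cy3 intensity by summed buffer-cycle Cy3 intensity for each cluster and is averaged per switch-domain sequence. Cy3-labelled switching-strand clusters on a modified Illumina MiSeq flow-cell were annealed to 100 nM quencher-labelled ATP aptamer, then imaged in selection buffer and again after 15 min with 500 uM ATP at 22 °C. Five such cycles were run, with NaOH stripping and re-annealing between them, and clusters outside 100-1000 RFU were excluded.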
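Also: ATP exposure 15 min at 22 °C before imaging.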

Sequence | switch fluorescence ratio
TTCCTAATT | 1.03 ± 0.033
ATTTTGATAA | 1.02 ± 0.021
CGAACTGAGG | 0.985 ± 0.014
ACTTATCTAC | 1.05 ± 0.069
TACAGGGGGC | 1.12 ± 0.12
CGAGTAAATG | 1.01 ± 0.021
GTGTGGTGCA | 0.9802 ± 0.0045
TAGGGGTGCA | 1.079 ± 0.009
CTGGTTCTTT | 0.9898 ± 0.0082
GAGAAGGGAC | 1.03 ± 0.046
ATAGGGCACA | 1.08 ± 0.015
TAATGATTGC | 1.056 ± 0.0026
CGACATCGCA | 1.321 ± 0.0068
CGGGAACGGA | 0.984 ± 0.033
TGTGGGGCC | 1.04 ± 0.03
AGATTAGGCA | 0.992 ± 0.013
GCTGTACTCA | 1.43 ± 0.13
ATGTGTGAAT | 0.997 ± 0.015
AAGGACGTGG | 0.98 ± 0.029
GGCCACGGGG | 0.991 ± 0.0054
GCAATCAATA | 1.02 ± 0.015
GCCCTATGTG | 1.25 ± 0.034
CTGTATTTCT | 1.03 ± 0.021
TATGCAGCG | 1.001 ± 0.0024
TCGATATTTA | 0.982 ± 0.02

Sequence | switch fluorescence ratio
TTTAGACGGT | 1.02 ± 0.066
GCGATGCCTC | 1.09 ± 0.043
GGTTTTCGGC | 0.9771 ± 0.0087
AAGAGTTTTT | 0.981 ± 0.033
AGTTATGCAC | 1.024 ± 0.0083
ATAGATCATC | 1.05 ± 0.02
ATATTGTTGT | 0.997 ± 0.057
GAAAAAGGCC | 1.02 ± 0.011
ATTAAGGTAG | 1 ± 0.014
AAAATTTCAA | 1.011 ± 0.0042
TATGAATGTG | 0.991 ± 0.022
AGGGGTATGT | 0.989 ± 0.023
GGGATGAGGA | 0.9848 ± 0.0044
TATGGTGTGG | 0.967 ± 0.024
AGATTGAGCG | 1 ± 0.019
ATTGTGCTGA | 0.9481 ± 0.0073
ATGCTATAGT | 1.021 ± 0.0025
AGGCGTATTT | 0.9987 ± 0.0062
TGAGAATGGG | 0.995 ± 0.044
CGCTGTGAAG | 1.02 ± 0.012
TTTAGCGCAT | 1.04 ± 0.06
GGTTGTGACG | 1 ± 0.08
TACGGGTAAT | 1.04 ± 0.019
TTTACGGAAC | 1.244 ± 0.0059
TTTCCTGGGG | 1.04 ± 0.039

Sequence | switch fluorescence ratio
GAGGCAGAGT | 1.04 ± 0.023
GCAGCTAGTA | 1.044 ± 0.0045
AACGAGAGGG | 1.04 ± 0.035
GGGGTCAACG | 0.963 ± 0.035
ACGGCGAGAG | 1.06 ± 0.03
TTCTTTAAAC | 0.992 ± 0.033
TCGTTATGTC | 1 ± 0.032
CGGTTTGCAG | 0.972 ± 0.043
TTCTGAGGTG | 1.074 ± 0.0026
CGTTGTATTA | 0.996 ± 0.051
TTTCTTTAGT | 1 ± 0.04
AGGGCCGAT | 0.955 ± 0.046
TGACCCTATA | 1.06 ± 0.028
GTGCAAGGGT | 1.01 ± 0.029
AATGAAAGCG | 1.01 ± 0.015
CTGGGGGTGC | 1.06 ± 0.017
TGGTCGGCAA | 1.045 ± 0.0081
GGTGGGATGA | 0.965 ± 0.015
CAAATTTGGT | 0.993 ± 0.032
AGGGAGAGCG | 0.991 ± 0.071
GATTGGAGTC | 1.008 ± 0.0045
AGGGACTGGT | 1.01 ± 0.036
ACCTGGCGTA | 1.04 ± 0.0016
TCGTGTTCGA | 1.001 ± 0.0094
ACGATGGGGA | 1.04 ± 0.034

Sequence | switch fluorescence ratio
CCGTCCGGTT | 1.16 ± 0.018
AAGGGTATGT | 0.981 ± 0.029
AATATCAGGA | 1.026 ± 0.0083
GCGTGCATTC | 1.05 ± 0.017
TGGGTCCGTG | 0.963 ± 0.033
TCTTCTATCT | 0.985 ± 0.039
AATGCCTCTT | 1.013 ± 0.0028
CCTAATGTAA | 1.08 ± 0.027
GTTGGAGATT | 0.961 ± 0.042
CCGGAGAGGT | 2.28 ± 0.23
TCGCTTAATT | 1.02 ± 0.032
AAGAAAGGTA | 1.01 ± 0.025
GGTCGGGGTG | 1.09 ± 0.069
CGTTGTGAGG | 1.03 ± 0.038
TTCTCGGGGG | 1.04 ± 0.043
TTTGAGAGTT | 1.03 ± 0.058
CCGGGGTAAG | 1.03 ± 0.029
TCCGGGATCC | 1.25 ± 0.04
CGTTTGGGAG | 0.9739 ± 0.0061
TTTTTTCAGC | 1 ± 0.048
TCGTGAGGGG | 1.02 ± 0.047
CGGGCATTGT | 1.01 ± 0.051
TTATTGAGGT | 0.981 ± 0.012
TAGTGGAAAA | 1.02 ± 0.077
AGCGGTCTGG | 1 ± 0.013

Sequence | switch fluorescence ratio
ATTAGGGGGG | 0.998 ± 0.012
CTGTTAATAG | 1.12 ± 0.027
GATCCGGCTT | 1.04 ± 0.035
GTGAATAGGG | 0.989 ± 0.028
GCGAGGGGCA | 0.992 ± 0.025
GATGTACCCC | 1.114 ± 0.0023
TTGTTTCAGT | 0.997 ± 0.028
GGGGAGAAGA | 0.9662 ± 0.005
GCTGGACTCG | 1.053 ± 0.0015
AAGGGTGAC | 1.01 ± 0.032
CAGAGACTTT | 0.994 ± 0.012
ACGGGCGGCG | 0.979 ± 0.047
TCGGGATGTT | 0.989 ± 0.027
TTTTGGAAGG | 1.02 ± 0.0083
GGGTGGGTGG | 0.989 ± 0.017
AGTAGGAAGG | 1.01 ± 0.019
GACTAACGCA | 1.25 ± 0.057
GGGGGGGG | 0.994 ± 0.043
TTCTTTTATC | 0.983 ± 0.03
TTTGTCGGGT | 0.994 ± 0.014
GAAAGAGGGT | 1.03 ± 0.035
GTGGATTTGG | 1.019 ± 0.0056
ATGCAAAGGA | 1 ± 0.043
GTGGCCCTAT | 0.998 ± 0.027
ATATTTGGGG | 1.02 ± 0.046

Sequence | switch fluorescence ratio
GTTGTCAGGT | 1.001 ± 0.0018
TTCGATTTTT | 0.981 ± 0.048
TTGGCACGAT | 1.012 ± 0.0011
CTTGTGAGGG | 0.985 ± 0.037
GGCATTGGGG | 1.03 ± 0.029
CGCCTGTTAG | 0.99 ± 0.016
AAGGGATCTG | 0.9763 ± 0.0069
TAGTGTGGG | 0.99 ± 0.024
GGTGTTAATT | 0.9888 ± 0.0093
CCTAGGGTTA | 1.01 ± 0.074
ATCGGTGAAG | 0.9925 ± 0.0058
TGACTACATG | 1.04 ± 0.013
GCTTGGCAAC | 1.02 ± 0.012
GATTTGAAGG | 1.01 ± 0.035
GTTTGTCAGC | 1.01 ± 0.024
GGTCCGGCAC | 1.079 ± 0.009
TGTTATTCAT | 0.985 ± 0.041
GCTGGACTTG | 0.998 ± 0.053
TTGACCTGTG | 1.02 ± 0.013
TCGGTGATGG | 0.988 ± 0.021
TCTCCATTGT | 1.04 ± 0.046
GAGGGTGCAG | 1.004 ± 0.0043
AATCCGTTTT | 1.04 ± 0.044
AGGGAAATTT | 0.99 ± 0.014
AGTATAGAGT | 1.01 ± 0.037

Sequence | switch fluorescence ratio
AAGTCGGTGG | 0.987 ± 0.07
TCGAATAATT | 1 ± 0.041
GGGGTGCCAG | 0.963 ± 0.058
CATGCAAATA | 1.07 ± 0.034
CGAGTTACGG | 1.01 ± 0.019
GAGTCTTTTA | 0.959 ± 0.013
GGAGTCTGGG | 0.981 ± 0.021
GGTTTGACTA | 0.9857 ± 0.0066
TGGGGTAGAG | 0.97 ± 0.041
TTTATATGCG | 1 ± 0.027
GAGGCAAAGT | 1.094 ± 0.0059
TGGGGACCGT | 1 ± 0.03
ACTGCTTGGT | 0.996 ± 0.017
AGGGTTGGAC | 0.9774 ± 0.0057
TGGGGGTTAT | 0.993 ± 0.042
TGTAACCTTT | 1.04 ± 0.018
ATATTAGGGT | 1.01 ± 0.042
GCCACATTCA | 0.991 ± 0.017
GTGCGACGTT | 0.965 ± 0.08
ATTTGGGCTG | 0.999 ± 0.015
TAATCGCGGC | 1.31 ± 0.35
AACAGGATGC | 1.027 ± 0.0039
ATTTAGGATT | 1.01 ± 0.018
CAGCACGCGC | 1.06 ± 0.038
AGATGTCCTT | 1.02 ± 0.037

Sequence | switch fluorescence ratio
TGGGTGATAT | 0.989 ± 0.018
TTTTTCATCA | 0.982 ± 0.036
AAATGCTTCA | 1.03 ± 0.019
TGGGGCGCTT | 1 ± 0.033
CTCATATTGT | 1.006 ± 0.0076
CACTGGGGCA | 1.1 ± 0.15
GGTTGACATA | 1.01 ± 0.025
AAATAAAATG | 0.932 ± 0.11
TTGGTGGTCT | 1.05 ± 0.075
TTACTTGGCT | 1.01 ± 0.032
AAGCAGGGCT | 0.999 ± 0.019
TACTGAGCAG | 1.019 ± 0.003
CGTTTTTCTG | 0.968 ± 0.013
TTGGGGGAAG | 0.981 ± 0.026
GAGAGTGAAT | 1.01 ± 0.081
GGGACTGGGA | 1 ± 0.031
TACTTTGGGA | 0.98 ± 0.043
TTTTGTTGCA | 1.038 ± 0.0056
TGCAGGGGTG | 1.06 ± 0.022
TCACGCTTGA | 1.05 ± 0.052
GAAACATTGG | 1.0357 ± 0.00021
TAAACTGCGG | 1.03 ± 0.02
TCATCAGGCC | 1.02 ± 0.012
GATTGATTGT | 0.9867 ± 0.0061
TGGGGGAGCA | 0.9811 ± 0.0094
